For eleven molecules, IC50, GPI IC50 and MVD IC50 results are on record in patent US20020165132A1.

Positions of bridges follow the written chain, without caps; N, C: chain ends. Non-standard residues stand in square brackets, D forms with d. No end group written: not given here. AlaL = alanine half of a lanthionine (monosulfide) bridge; Thr(ol) = C[C@@H](O)[C@H](N)CO; dValL = not defined here

The target in assay [1] is SSTR4 Receptor (cloned somatostatin receptor). The assay is described as follows: inhibition of radioligand binding to cloned SSTR4.
Assay [2] concerns the target SSTR2 Receptor (cloned somatostatin receptor). The assay is described as follows: inhibition of radioligand binding to cloned SSTR2.
For assay [3], the target named is µ-receptor (guinea pig ileum preparation) (guinea pig). The assay is described as follows: cell-based or functional assay.
Assay [4] concerns the target δ-receptor (mouse vas deferens preparation) (mouse) (UniProt P32300). Kind of assay: cell-based or functional assay.
Assay [5] concerns the target δ-receptor (mouse vas deferens preparation) (mouse), P32300. The assay is described as follows: cell-based or functional assay.

SSTR2 Receptor (cloned somatostatin receptor), sequence (P30875 whole entry): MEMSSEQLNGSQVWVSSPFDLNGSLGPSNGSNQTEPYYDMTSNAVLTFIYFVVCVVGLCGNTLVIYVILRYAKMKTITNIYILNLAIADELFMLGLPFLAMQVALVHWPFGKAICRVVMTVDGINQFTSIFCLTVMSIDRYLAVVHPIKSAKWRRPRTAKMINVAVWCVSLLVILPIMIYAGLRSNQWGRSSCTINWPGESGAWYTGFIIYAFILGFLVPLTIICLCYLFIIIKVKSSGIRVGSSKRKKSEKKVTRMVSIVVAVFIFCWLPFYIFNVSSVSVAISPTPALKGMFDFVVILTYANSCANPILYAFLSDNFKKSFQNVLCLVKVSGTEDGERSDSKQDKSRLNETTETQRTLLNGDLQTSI
SSTR4 Receptor (cloned somatostatin receptor), sequence (P30938 whole entry): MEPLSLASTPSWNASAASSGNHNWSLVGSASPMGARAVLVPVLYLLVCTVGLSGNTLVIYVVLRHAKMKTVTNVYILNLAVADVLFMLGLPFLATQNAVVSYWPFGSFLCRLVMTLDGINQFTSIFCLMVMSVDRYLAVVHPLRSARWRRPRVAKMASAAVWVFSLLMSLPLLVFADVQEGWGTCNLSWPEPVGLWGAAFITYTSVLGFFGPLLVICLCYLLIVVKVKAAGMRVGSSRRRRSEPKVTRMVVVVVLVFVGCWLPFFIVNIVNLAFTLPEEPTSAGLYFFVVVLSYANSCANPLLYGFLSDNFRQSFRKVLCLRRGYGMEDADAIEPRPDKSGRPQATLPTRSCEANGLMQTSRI
δ-receptor (mouse vas deferens preparation) (mouse), sequence (P32300 whole entry, stated change not applied): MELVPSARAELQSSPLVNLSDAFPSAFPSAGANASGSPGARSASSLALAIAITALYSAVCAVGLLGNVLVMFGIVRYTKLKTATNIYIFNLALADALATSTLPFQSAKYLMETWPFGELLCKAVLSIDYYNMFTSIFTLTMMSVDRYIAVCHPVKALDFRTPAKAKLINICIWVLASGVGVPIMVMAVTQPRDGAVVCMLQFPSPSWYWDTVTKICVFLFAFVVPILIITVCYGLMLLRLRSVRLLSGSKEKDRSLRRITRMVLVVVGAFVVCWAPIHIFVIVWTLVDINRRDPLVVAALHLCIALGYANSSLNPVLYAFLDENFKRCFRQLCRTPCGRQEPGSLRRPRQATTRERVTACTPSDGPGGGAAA
δ-receptor (mouse vas deferens preparation) (mouse), P32300, sequence (P32300 whole entry, stated change not applied): as above

In assay [1], H-[dF][AlaL]F[dW]KT[AlaL]-OH (thioether 2-7) [H-D-Phe-c[AlaLPhe-D-Trp-Lys-Thr-AlaL]-OH] displayed an IC50 of 500 nM.

As for H-[dF][AlaL]F[dW]KT[AlaL]T-NH2 (thioether 2-7) [H-D-Phe-c[AlaLPhe-D-Trp-Lys-Thr-AlaL]-Thr-NH2], the 50% inhibitory concentration (IC50) is 10 nM in assay [2] and 0.5 nM in assay [1].

B1: Tyr-c[D-ValL-Gly-Phe-D-AlaL]-OH (peptide)
peptide: Y[dValL]GF[dAlaL]-OH
modifications: thioether 2-5; reading uncertain; also: printed as Tyr-c[D-ValL-Gly-Phe-D-AlaL]-OH
B1 showed a GPI IC50 in assay [3] of 535 nM.

Y[dAlaL]GF[dAlaL]-NH2 (thioether 2-5) [Tyr-c[D-AlaL-Gly-Phe-D-AlaL]-NH2] yielded a GPI IC50 in assay [3] of 1.67 nM. The MVD IC50 in assay [4] was 1.67 nM.

For AGCKNFFWKTFTSC (peptide, UniProt P61278 103-116, looked up, disulfide 3-14 (inferred)) [Somatostatin-14], the IC50 was determined as 0.28 nM in assay [2] and 0.86 nM in assay [1].

B2: Tyr-c[D-ValL-Gly-Phe-L-AlaL]-OMe (peptide)
peptide: Y[dValL]GF[AlaL]-OMe
modifications: thioether 2-5; reading uncertain; also: printed as Tyr-c[D-ValL-Gly-Phe-L-AlaL]-OMe
Consider B2, for which, in assay [3], the GPI IC50 came out at 88.1 nM. In assay [4], this molecule returned an MVD IC50 of 3.65 nM.

B3: Tyr-c[D-AlaL-Gly-Phe-L-AlaL]-NH2 (peptide)
peptide: Y[dAlaL]GF[AlaL]-NH2
modifications: bridge 2-5; not fully specified (bridges); printed as Tyr-c[D-AlaL-Gly-Phe-L-AlaL]-NH2
Take B3: in assay [5], the MVD IC50 is 0.54 nM.

B4: Tyr-c[D-AlaL-Gly-Phe-L-AlaL]-OH (peptide)
peptide: Y[dAlaL]GF[AlaL]-OH
modifications: bridge 2-5; not fully specified (bridges); printed as Tyr-c[D-AlaL-Gly-Phe-L-AlaL]-OH
Consider B4, for which the MVD IC50 in assay [5] turned out to be 0.16 nM.

B5: Tyr-c[D-ValL-Gly-Phe-L-AlaL]-OH (peptide)
peptide: Y[dValL]GF[AlaL]-OH
modifications: thioether 2-5; reading uncertain; also: printed as Tyr-c[D-ValL-Gly-Phe-L-AlaL]-OH
With B5, the GPI IC50 in assay [3] is 39 nM.

As to H-[dF][AlaL]F[dW]KT[AlaL][Thr(ol)] (thioether 2-7) [H-D-Phe-c[AlaLPhe-D-Trp-Lys-Thr-AlaL]-Thr-ol], the half-inhibitory concentration (IC50) in assay [2] was 5 nM; in assay [1], 1 nM.

In assay [2], [dF]CF[dW]KTC[Thr(ol)] (disulfide 2-7) [Sandostatin] gave an IC50 of 2.4 nM.

As usually defined, the IC50 is the concentration that gives 50% inhibition.
